Biological target: HA-tagged mutant (Leu15) AP2σ2 subunit (human) (human) (UniProt P53680)
Experiment: co-IP; lysates of HEK293 cells stably expressing FLAG-CaSR with HA-tagged WT or Leu15 AP2σ2; anti-HA-sepharose beads 2 h; blots with anti-AP2α, anti-AP2β2 and anti-AP2μ2 for the endogenous subunits; lysis buffer 0.5% NP40, 135 mM NaCl, 20 mM Tris pH 7.5, 1 mM EDTA

reduction of the subunit in the HA-AP2σ2 immunoprecipitate, Leu15 cells against WT cells: > 50%
Substance: AP2α subunit, endogenous in HEK293 (from UniProt O95782 1-977) (natural protein)
